The values that follow come from paper PMC4032242.

In this assay the target is type I IFN-β receptor (human (endogenous in A549 and Daudi)) (UniProt P48551).
Sequence of UniProt P48551 (P48551 27-515): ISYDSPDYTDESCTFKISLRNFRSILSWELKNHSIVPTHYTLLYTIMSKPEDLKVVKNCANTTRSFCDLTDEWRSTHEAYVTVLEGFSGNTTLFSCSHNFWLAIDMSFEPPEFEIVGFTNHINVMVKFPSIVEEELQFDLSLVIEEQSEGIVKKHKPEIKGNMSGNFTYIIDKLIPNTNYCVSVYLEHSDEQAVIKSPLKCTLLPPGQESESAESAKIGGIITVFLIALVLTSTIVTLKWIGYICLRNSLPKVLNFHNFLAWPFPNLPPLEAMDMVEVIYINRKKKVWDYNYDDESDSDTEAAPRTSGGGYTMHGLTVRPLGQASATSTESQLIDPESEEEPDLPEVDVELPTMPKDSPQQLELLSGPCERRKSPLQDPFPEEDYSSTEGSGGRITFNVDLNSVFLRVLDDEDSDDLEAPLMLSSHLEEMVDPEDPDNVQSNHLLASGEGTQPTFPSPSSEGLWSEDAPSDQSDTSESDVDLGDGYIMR

For the substance “R27T (rhIFN-β mutein with N-glycosylation at the 25th and 80th amino acid) (from UniProt P01574 22-187) (ligand)”, the 50% response in a FACS assay of IFN-inducible expression of MHC class I on the surface of A549 cells worked out at 265 pg/mL; the IC50 in the antiproliferative assay (Daudi cells, 48 hr) is 0.014 ng/mL; the in vitro anti-viral activity (protection of A549 cells against the cytopathic effect of EMCV), average of three lots worked out at 2.99e+08 IU/mg.

On to “Rebif (recombinant human interferon-β 1a) (from UniProt P01574 22-187) (ligand)”, for which the 50% response in a FACS assay of IFN-inducible expression of MHC class I on the surface of A549 cells was 238 pg/mL; the IC50 in the antiproliferative assay (Daudi cells, 48 hr) is 0.029 ng/mL; the in vitro anti-viral activity (protection of A549 cells against the cytopathic effect of EMCV) was 2.88e+08 IU/mg.

“R27TΔGlyc (from UniProt P01574 22-187) (ligand)” displayed a 50% response in a FACS assay of IFN-inducible expression of MHC class I on the surface of A549 cells of 359 pg/mL; an IC50 in the antiproliferative assay (Daudi cells, 48 hr) of 0.022 ng/mL; an in vitro anti-viral activity (protection of A549 cells against the cytopathic effect of EMCV), average of two lots of 2.52e+08 IU/mg.
